Results as given in US5864018.

Assays:
[1] = molecular target: human recombinant soluble RAGE/flag fusion protein (human); assay: excess lactoferrin against 125I-AGE-BSA binding to immobilized RAGE, Exp. 2; the filing leaves open whether lactoferrin acts through RAGE or AGE
[2] = molecular target: human recombinant soluble RAGE/flag fusion protein (human); assay: excess native BSA against 125I-AGE-BSA binding to immobilized RAGE, Exp. 2
[3] = molecular target: human recombinant soluble RAGE/flag fusion protein (human); assay: excess native BSA against 125I-AGE-BSA binding to immobilized RAGE, Exp. 3
AGE-BSA (bovine) = AGE-BSA (bovine) (UniProt P02769); assay: excess free RAGE/DCC chimera against 125I-AGE-BSA binding to immobilized RAGE, Exp. 1

Substance: lactoferrin (ligand)
- % Binding [1]: 50%

Substance: native BSA (from UniProt P02769)
- % Binding [2]: > 100%
- % Binding [3]: > 100%

Substance: recombinant soluble RAGE/DCC chimeric protein (receptor)
- % Binding (AGE-BSA (bovine)): 40%
